Measured values: the RNAGym collection of RNA variant scans (doi:10.1073/pnas.2313332121)

B1: TPR t1 (parent)
chain: GACCAAUCUGCCCUCAGAGCUCGAGAACAUCUUCGGAUGCAGAGGAGGCAGGCUUCGGUGGCGCGAUAGCGCCAACGUCCUCAACCUCCAAUGCAUCCCACCACAUGAUGAUGCCUGAAGAGCCUUGGUUUUUUG

Variants of: B1
Assay: polymerase ribozyme fitness, log enrichment relative to wild type (log ratio); higher = more active; in vitro selection for triplet polymerase activity
In short: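 In triplicate, a single round of in vitro selection was run on each mutant library, PCR-built and transcribed, covering one subunit of a heterodimeric triplet polymerase ribozyme. Frozen incubation at −7 °C followed annealing with a biotinylated primer, partner subunit and triplets, and extended constructs were then gel-excised, streptavidin-captured and taken through RT-PCR. Fitness is the logarithm of genotype enrichment over wild-type enrichment, from inverse-variance-weighted replicate averages of Illumina-sequenced inputs and outputs. […] only genotypes with ≥10 input reads and ≥1 read per output were kept.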

Variant	polymerase ribozyme fitness (log ratio)
G47A A75G U96C	-0.307
A46G G63U A121U U126A	0.154
A46C G57A C62G A121G	-1.34
G47U C101U U125G U126C	-2.99
A46C C56U G63A C114G G127C U129A	-5.93
G47C C64A C104U	-7.34
G47A A50U C56A G69U G77C	-1.54
G45U G63A	-2.32
G47U C56U A95U	-1.34
A46U G63C	-1.29
G45C C86G C102U G120U	-7.48
G47C A50U C72U U81C C114U	-5.1
G45U G48A G69U	-0.269
G47A G60U G93C C101A	-4.1
A46C G48U G113A	-3
G47U C123A	-0.877
G45U G47U G60A C98G	-7.59
A46G A105C	-1.62
A46G A90G C101U U106A	-0.372
A46G G47C U96A	-3.35
G45C C62U	-1.63
A46G U78A U112G	0.172
G45U C72U G120A	-0.418
A46U G48A C79G C82U G120A C123A	-3.09

Variant	polymerase ribozyme fitness (log ratio)
G47A C82G C123G U125A	-1.38
G45A U92A	-3.38
G45C U55C A119U	-2.39
G45A G69U C99U A111G	-0.775
G45U G71A	-2.09
G45C U130C	-2.26
G47A U96G G110A	-3.19
G47C G117A	-2.73
G45C C49U C97U A100U A121C U133C	-0.146
A46C C49U A121U	0.936
A46U G61A G110U G120C G122A	-4.73
A46C G48A C101U G110C	-6.49
G47A C76G A90G	-0.228
G45U C64U G77U C79U C114G	-4.61
A46U U78C G113A	-2.45
G47U C72U C94A	-2.85
G47A G61A U116A U129A	-4.01
G47A G52A G120A	-0.716
A46G A103U U125A	-5.23
G45U C94U C102U	-3.33
A46U U55A G69A U125A	-4.29
G47U G69U	-0.915
G45C G47A	-3.52
G47C C49G	-2.19

Variant	polymerase ribozyme fitness (log ratio)
G45C G61C U131G	-1.96
A46G A90G	0.482
A46C C115G G117A	-4.09
A46G C64U	-0.426
G45U G47A U116C	-5.47
G47C C56G C72G C82U C97U U112A	-2.21
A46U C99U	-4.49
A46U G117A	-2.21
A46U A90C U133A	-1.74
G45U U78G C88U	-1.1
A46U C89U A111U	-5.27
G47C U112G C115U U130A	-5.2
A46C G47A A50G C97A A121G C124G	-5.64
A46U C56U C114A	-2.28
A46C C53A G77U	-0.585
G45U U106A	-1.76
G45U C73U G110A G122A G128C	-6.61
G45C U92A	-3.97
A46C C53U C56A U112A	0.259
G45A G60C	-0.0735
A46G C73U U87A A91C G113A	-2.54
A46U G69U C115A	-0.295
G47U C49G C70U U87C A100C	-3.16
G47A C102A	-2.65

Variant	polymerase ribozyme fitness (log ratio)
G47A C102G	-5.8
G47U G63U C85A	-3.29
G45C C72A	-0.797
G45C G69C U133A	-2.27
G47A G69U C86A C97U C115U C124G U125C	-0.107
G47U G77U	-2.07
G47U G77A	-2.15
G47C U125A	-2.59
G45A U55A	0.00657
A46U C53U G69C U87C	-2.13
G47U C76A C79A C80G C94G A100C U116G C124U U129A	-5.73
G45A G61A A74U	-1.29
G45U C123U G127U	-1.39
G45C U54C C73A U81A G93C A111C	-4.76
G45U U59G U112A	-0.539
G47A C114A	-2.59
G47U G60U U112G	-1.51
A46U C70A C85U	-3.76
G47A C104A	-2.7
G47A G60A C124G U133A	1.3
G47A A103C G122A	-6.8
G47U C98U U112A	-3.7
A46C U87A C123U U132A	1.86
G47A C114A C123G U125A	-2.46

Variant	polymerase ribozyme fitness (log ratio)
G45U C104U C124A	-1.14
A46C G48A	-1.9
G47U A90U G117C	-4.37
A46U C94G C98U	-4.76
G45U C72A C88A G93A G107U A111C	-5.12
G47U C53U G120U	-1.25
A46U C102U	-4.01
G45U C53A C72U C89G	-1.72
A46G U55G	0.201
G45C G69U C82A G127A	-3.34
A46G G57A C73U A83G U112C	-0.119
G47C A111U	-4.54
A46G U59A	-0.58
G47C C70U	-2.2
G47U A100C U106A C124G	0.694
G47A C49A U132A	-1.53
G47A C70U	-1.86
G45C U87C	-0.513
G45U A74G U132A	-2.04
A46C C56G C72G U87A A100U	-1.12
G47A G51A G71U C98U A105U U112G	-7.71
G45U A50U A84U G117C	-7.49
A46U U54G C72A C82A G110U	-4.48
G45U C70A C123U	-1.23

Variant	polymerase ribozyme fitness (log ratio)
A46U C56A	-1.15
A46U C70G	-4.75
A46U U131C	-1.72
G45C A46C A105C	-5.01
G47C G113C	-3.85
G47C G113U	-4.11
G47C U55G G63A C104U	-3.2
G47A C85G G113A U132A	-2.45
G47A C101U G122A	-1.99
G47U G48U U59A C79U	-3.11
A46G C73U C88A U130A	-3.03
G45C C79A A121G	-0.868
A46G G61A A100C U132C	-0.683
G45A G52A C89U U92A G120U	-3.99
G45U G63A U78G G120C	-1.71
G45U A91C	-2.07
G47A C64U G117U	-4.27
G45U A50U C114A G135A	-5.32
G45U G77U G93U G120U	-3.3
G45U G51A G52U	-4.66
G47U G51U G60C	-3.98
A46G A66U C73A C82G	-2.3
A46U C76G	-1.01
A46U G110U G120C G122A	-5.9

Variant	polymerase ribozyme fitness (log ratio)
G47A G51C G77C C80U U87C C124G U131G	-1.89
A46G C53A	-0.35
G47A C49A C124U	0.655
G45C G51U G57U C99A G117C	-7.29
G47A G60A C85G C123U	-3.19
G47A A91C G117U U133G	-4.6
G47A C53U A118U	-0.687
G45U G48A	-1.51
G47U C124A U130G	-0.902
A46C C49U A83U	-4.1
G47U A119U	-1.82
G45U A50G	-1.25
G45C G47U A50G G57U	-3.62
G45A G69A	-3.01
G45A G71U C115G	-2.11
G45U G69A	-4.29
G47U C53A C114A	-2.64
G47C C72U C94U	-2.45
G47A U78C C88A C97A U106A	-5.69
A46U G71U	-1.16
G47U A100U U116A G117A U132A	-5.1
G47U G110A	-2.29
G47U G110U	-3.1
